Consider 2 proteins from PMC12177876, “Nanoflow Size Exclusion Chromatography–Native Mass Spectrometry of Intact Proteoforms and Protein Complexes” (Analytical Chemistry, 2025).

This data set deals with the molecule itself. Description: SEC + native MS; nanoflow SEC-nMS of reference proteins: 50 nL of 1 mg mL^-1 protein injected, 200 um ID capillary SEC column, 0.5 uL min^-1, eluted with 200 mM AmAc; isCID varies by protein. Background: SEC sorts molecules by how far they enter the pores of the column.

B1: alcohol dehydrogenase (enzyme, UniProt P00330 1-348, looked up)
chain: MSIPETQKGVIFYESHGKLEYKDIPVPKPKANELLINVKYSGVCHTDLHAWHGDWPLPVKLPLVGGHEGAGVVVGMGENVKGWKIGDYAGIKWLNGSCMACEYCELGNESNCPHADLSGYTHDGSFQQYATADAVQAAHIPQGTDLAQVAPILCAGITVYKALKSANLMAGHWVAISGAAGGLGSLAVQYAKAMGYRVLGIDGGEGKEELFRSIGGEVFIDFTKEKDIVGAVLKATDGGAHGVINVSVSEAAIEASTRYVRANGTTVLVGMPAGAKCCSDVFNQVVKSISIVGSYVGNRADTREALDFFARGLVKSPIKVVGLSTLPEIYEKMEKGQIVGRYVVDTSK
notes: The tetramer mass fits S. cerevisiae ADH1; this is surmised, the source is in the supplement; also called ADH
For orientation: stoichiometry N means the number of molecules, sites or subunits per partner or assembly. For B1, the “stoichiometry N” value is 4.

B2: catalase (enzyme, UniProt P00432 1-527, looked up)
chain: MADNRDPASDQMKHWKEQRAAQKPDVLTTGGGNPVGDKLNSLTVGPRGPLLVQDVVFTDEMAHFDRERIPERVVHAKGAGAFGYFEVTHDITRYSKAKVFEHIGKRTPIAVRFSTVAGESGSADTVRDPRGFAVKFYTEDGNWDLVGNNTPIFFIRDALLFPSFIHSQKRNPQTHLKDPDMVWDFWSLRPESLHQVSFLFSDRGIPDGHRHMNGYGSHTFKLVNANGEAVYCKFHYKTDQGIKNLSVEDAARLAHEDPDYGLRDLFNAIATGNYPSWTLYIQVMTFSEAEIFPFNPFDLTKVWPHGDYPLIPVGKLVLNRNPVNYFAEVEQLAFDPSNMPPGIEPSPDKMLQGRLFAYPDTHRHRLGPNYLQIPVNCPYRARVANYQRDGPMCMMDNQGGAPNYYPNSFSAPEHQPSALEHRTHFSGDVQRFNSANDDNVTQVRTFYLKVLNEEQRKRLCENIAGHLKDAQLFIQKKAVKNFSDVHPEYGSRIQALLDKYNEEKPKNAVHTYVQHGSHLSAREKANL
notes: Bovine liver catalase is surmised; the source is in the supplement
As for B2, the “stoichiometry N” value came out at 4.
